{"source": "patent US20170152311A1", "about": "(published 2017)", "key": {"[1]": {"molecular_target": "T1, recombinant human M-CSF (human, UniProt P09603 33-190, limits assumed)", "T1 construct": "The active form is described as a disulfide bonded dimer; also called M-SCF; CSF-1", "T1 sequence": "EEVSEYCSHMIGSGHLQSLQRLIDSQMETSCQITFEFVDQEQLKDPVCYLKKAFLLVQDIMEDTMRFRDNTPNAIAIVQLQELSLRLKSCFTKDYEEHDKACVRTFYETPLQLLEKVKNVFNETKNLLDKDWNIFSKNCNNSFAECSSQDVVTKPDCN", "test": "SPR (Biacore), M-CSF amine-coupled on CM5 chip, antibody flowed", "description": "(§1) To determine the relative differences in the binding affinity of intact antibodies by Biacore analysis, M-CSF was immobilized onto CMS biosensor chip via amine coupling. 0.05 μg/ml M-CSF in 10 mM Na-Acetate pH 4.0 was injected at 1 μl/min for 5 minutes to achieve RL=6-12 RU. Test antibody or Fab fragments were flowed over the modified biosensor surface at varying concentrations ranging from 100 nM to 1.5 nM in 2-fold dilutions. Test antibodies were diluted in 0.01 M HEPES pH 7.4, 0.15 M NaCL, 3 mM EDTA, 0.005% Surfactant P20 (HBS-EP) and all experiments were done at 25° C. Each concentration point and buffer blanks were run in triplicate, and data was collected over 3 minutes of association and 8 minutes of dissociation. Kinetic and affinity constants were determined using Biaevaluation software with a 1:1 interaction model/global fit."}, "[2]": {"molecular_target": "T1, recombinant human M-CSF", "test": "SPR (Biacore), M-CSF amine-coupled on CM5 chip, antibody flowed 100 nM to 1.5 nM, 25 C, 1:1 model, n = 2", "description": "as §1"}, "[3]": {"molecular_target": "T1, recombinant human M-CSF", "test": "cell-based or functional assay"}, "[4]": {"molecular_target": "T1, recombinant human M-CSF", "test": "SPR (Biacore), M-CSF amine-coupled on CM5 chip, antibody flowed, 25 C, 1:1 model, n = 2", "description": "as §1"}, "[5]": {"molecular_target": "T1, recombinant human M-CSF", "test": "SPR (Biacore), M-CSF amine-coupled on CM5 chip, antibody flowed, 25 C, 1:1 model, n = 21", "description": "as §1"}, "[6]": {"molecular_target": "T1, recombinant human M-CSF", "test": "SPR (Biacore), M-CSF amine-coupled on CM5 chip, antibody flowed 100 nM to 1.5 nM, 25 C, 1:1 model, n = 21", "description": "as §1"}, "[7]": {"molecular_target": "T1, recombinant human M-CSF", "test": "SPR (Biacore), M-CSF amine-coupled on CM5 chip, antibody or Fab flowed, 25 C, 1:1 model", "description": "Specifically, M-CSF was immobilized onto CM5 biosensor chip via amine coupling. 0.05 μg/ml M-CSF in 10mM Na Acetate pH 4.0 was injected at 1 μl/min for 5 minutes to achieve RL=6-12 RU. Test antibody (or Fab fragment) were flowed over the modified biosensor surface at varying concentrations. Test antibodies were diluted in 0.01 M HEPES pH 7.4, 0.15 M NaCL, 3 mM EDTA, 0.005% Surfactant P20 (HBS-EP) and all experiments were done at 25° C. Kinetic and affinity constants were determined using Biaevaluation software (Biacore) with a 1:1 interaction model/global fit."}, "[8]": {"molecular_target": "T1, recombinant human M-CSF", "test": "SPR (Biacore), antibody captured on anti-mouse Fc chip, M-CSF flowed, 25 C, 1:1 model", "description": "Binding properties of the aforementioned antibodies were analyzed using Biacore analyses. […] The aforementioned antibodies were then captured on the anti-mouse Fc/CM5 biosensor chip at 1.5 μg/ml for 3 min at 2 μl/min. MCSF was flowed over the modified biosensor surface at varying concentrations (Rmax ˜15). Test antibodies and antigen were diluted in 0.01 M HEPES pH 7.4, 0.15 M NaCL, 3 mM EDTA, 0.005% Surfactant P20 (HBS-EP). All experiments were performed at 25° C. Kinetic and affinity constants were determined using Biaevaluation software (Biacore) with a 1:1 interaction model/global fit."}, "[9]": {"molecular_target": "T1, recombinant human M-CSF", "test": "cell-based or functional assay", "remark": "listed apart in the source"}}, "data": [{"binder": "heRX1-10.G2 (antibody, V domains shown, not shown: human Gamma-2 heavy chain constant region; human Kappa light chain constant region (the V region entry may overlap its start)) VH: QVQLQESGPGLVKPSQTLSLTCTVSDYSITSDYAWNWIRQFPGKGLEWMGYISYSGSTSYNPSLKSRITISRDTSKNQFSLQLNSVTAADTAVYYCASFDYAHAMDYWGQGTTVTVSS VL: DIVLTQSPAFLSVTPGEKVTFTCQASQSIGTSIHWYQQKTDQAPKLLIKYASESISGIPSRFSGSGSGTDFTLTISSVEAEDAADYYCQQINSWPTTFGGGTKLEIKR", "values": [{"measurement": "fold decrease in binding affinity compared to the parent murine antibody", "setting": "[1]", "value": "≥ 7", "unit": "fold"}, {"measurement": "Kd", "setting": "[2]", "value": 6.3, "unit": "nM"}, {"measurement": "koff", "setting": "[2]", "value": 0.0011, "unit": "s⁻¹"}, {"measurement": "kon", "setting": "[2]", "value": 173000, "unit": "M⁻¹ s⁻¹"}, {"measurement": "IC50 Fold Loss", "setting": "[3]", "value": 2.2, "unit": "fold"}, {"measurement": "Kd", "setting": "[4]", "value": 6.3, "unit": "nM"}, {"measurement": "koff", "setting": "[4]", "value": 0.0011, "unit": "s⁻¹"}, {"measurement": "kon", "setting": "[4]", "value": 173000, "unit": "M⁻¹ s⁻¹"}]}, {"binder": "murine monoclonal antibody RX1 (antibody, V domains shown, Intact murine antibody; The hybridoma or commercial RX1 and the recombinant murine RX1 (rRX1, rmRX1) are treated as one molecule; also called Murine RX1; rRX1(mouse)) VH: DVQLQESGPGLVKPSQSLSLTCTVTDYSITSDYAWNWIRQFPGNKLEWMGYISYSGSTSYNPSLKSRISITRDTSKNQFFLQLNSVTTEDTATYYCASFDYAHAMDYWGQGTSVTVSS VL: not shown", "values": [{"measurement": "Kd", "setting": "[5]", "value": 0.7, "unit": "nM"}, {"measurement": "koff", "setting": "[5]", "value": 0.000156, "unit": "s⁻¹"}, {"measurement": "kon", "setting": "[5]", "value": 223000, "unit": "M⁻¹ s⁻¹"}, {"measurement": "Kd", "setting": "[6]", "value": 0.7, "unit": "nM"}, {"measurement": "koff", "setting": "[6]", "value": 0.000156, "unit": "s⁻¹"}, {"measurement": "kon", "setting": "[6]", "value": 223000, "unit": "M⁻¹ s⁻¹"}, {"measurement": "Kd", "setting": "[7]", "value": 1, "unit": "nM"}, {"measurement": "koff", "setting": "[7]", "value": 0.000235, "unit": "s⁻¹"}, {"measurement": "kon", "setting": "[7]", "value": 234000, "unit": "M⁻¹ s⁻¹"}, {"measurement": "Kd", "setting": "[8]", "value": 0.16, "unit": "nM"}, {"measurement": "koff", "setting": "[8]", "value": 0.00027, "unit": "s⁻¹"}, {"measurement": "kon", "setting": "[8]", "value": "1.64e+06", "unit": "M⁻¹ s⁻¹"}, {"measurement": "EC50 (M-CSF neutralization)", "setting": "[9]", "value": 2, "unit": "ng/mL"}]}]}
